# Laboratory results as given in paper PMC7587234.
# How the values were obtained:
# Experiment in all cases: SPR
# [1] = molecular target: cynomolgus monkey neonatal Fc receptor (cyno FcRn), soluble heterodimer (UniProt Q8SPV9+Q8SPW0); settings: pH 7.4; not stated (pH 7.4)
# [2] = molecular target: human neonatal Fc receptor (hFcRn), soluble heterodimer (UniProt P55899+P61769); settings: pH 7.4; not stated (pH 7.4)
# [3] = molecular target: biotinylated human neonatal Fc receptor (hFcRn), p51 subunit with β2-m (human) (UniProt P55899)
# [4] = molecular target: FcγRIIIa (UniProt P08637)
# [5] = molecular target: biotinylated cynomolgus FcRn, p51 subunit with β2-m (cynomolgus monkey) (UniProt Q8SPV9)
# UniProt P08637, sequence (P08637 17-208): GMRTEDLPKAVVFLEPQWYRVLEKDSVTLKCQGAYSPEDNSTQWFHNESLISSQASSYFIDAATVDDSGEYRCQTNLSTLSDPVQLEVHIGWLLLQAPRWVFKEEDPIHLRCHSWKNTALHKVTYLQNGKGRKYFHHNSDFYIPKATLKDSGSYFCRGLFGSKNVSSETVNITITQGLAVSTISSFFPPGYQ
# UniProt Q8SPV9, sequence (Q8SPV9 24-297, chain 1 of 2): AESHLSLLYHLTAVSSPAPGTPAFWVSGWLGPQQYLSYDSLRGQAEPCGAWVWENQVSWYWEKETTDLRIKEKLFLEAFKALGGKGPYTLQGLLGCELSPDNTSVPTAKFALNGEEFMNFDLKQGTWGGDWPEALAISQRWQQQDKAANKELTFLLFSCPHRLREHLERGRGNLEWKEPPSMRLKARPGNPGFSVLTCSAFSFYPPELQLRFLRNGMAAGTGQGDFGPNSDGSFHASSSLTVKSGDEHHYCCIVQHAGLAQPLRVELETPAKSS
# UniProt Q8SPV9, sequence (Q8SPW0 21-119, chain 2 of 2, further chain): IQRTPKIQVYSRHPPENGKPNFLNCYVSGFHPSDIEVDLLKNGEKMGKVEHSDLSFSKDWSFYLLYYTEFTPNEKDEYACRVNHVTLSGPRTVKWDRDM
Substance,Steady State RU [1] [RU],Steady State RU [2] [RU],Kd [3] [nM],"Steady State RU, at pH 7.4 [3] [RU]",Kd [4] [nM],Kd [5] [nM],"Steady State RU, at pH 7.4 [5] [RU]"
adalimumab LS M428L;N434S,55.7,68.4,–,–,–,–,–
"adalimumab WT Fc (labelled mAb2 in Table 2, mAb3 in Tables 1 and 3)",2.5,2.7,–,–,–,–,–
adalimumab with the LS Fc-backbone mutation (M428L/N434S) (antibody),–,–,500,68.4,196,48,55.7
bevacizumab (mAb1) LS M428L;N434S,38.3,44,–,–,–,–,–
bevacizumab (mAb1) WT Fc,1.3,1.3,–,–,–,–,–
bevacizumab (mAb1) YD M252Y;T256D,22.2,27,–,–,–,–,–
mAb1 (bevacizumab) with the DQ Fc-backbone mutation (T256D/T307Q) (antibody),–,–,89,14,361,110,10.9
mAb1 (bevacizumab) with the LS Fc-backbone mutation (M428L/N434S) (antibody),–,–,–,44,307,210,38.3
mAb1 (bevacizumab) with the YD Fc-backbone mutation (M252Y/T256D) (antibody),–,–,86,27,645,120,22.2
"mAb1 (bevacizumab), wild-type Fc (antibody)",–,–,500,–,377,1440,–

# Now from value to substance:
Steady State RU [1] [RU],Steady State RU [2] [RU],Kd [3] [nM],"Steady State RU, at pH 7.4 [3] [RU]",Kd [4] [nM],Kd [5] [nM],"Steady State RU, at pH 7.4 [5] [RU]",Substance
–,–,645,–,194,1100,–,"adalimumab, wild-type Fc (antibody)"
10.9,14,–,–,–,–,–,bevacizumab (mAb1) DQ T256D;T307Q
14.8,18,–,–,–,–,–,bevacizumab (mAb1) DW T256D;T307W
–,–,126,18,329,99,14.8,mAb1 (bevacizumab) with the DW Fc-backbone mutation (T256D/T307W) (antibody)
